One substance from patent EP2620453B1 can be followed below.

Experiment [1] has as its target Stx1 (type-I Shiga toxin, recombinant holotoxin) (EHEC O157:H7) (UniProt P08026). In words: ELISA, plates coated with Stx1, serum titer. For orientation: An ELISA detects its analyte on a solid surface through an enzyme-linked reagent.
The target in experiment [2] is Stx2 (type-II Shiga toxin, recombinant holotoxin) (EHEC O157:H7) (UniProt P09386). Nature of the experiment: ELISA, plates coated with Stx2, serum titer.

Some results are limits rather than exact numbers.

Consider “serum of the placebo control PBS group (BALB/c mice) (antibody)”, for which the titer of serum IgA and IgG in experiment [1] and in experiment [2] was under 2 in each case.
